Where two headings read alike, the source gives them in different places.
Legend:
[1] = biological target: T1, full-length mature human EMR2 (residues Q24-N823) with N-terminal aspartic acid/lysine epitope tag, … (human, UniProt Q9UHX3 24-823); assay: flow cytometry on transduced HEK293T; 293 naive MFI 326
T1 construct: Built from NM_013447; The IgK signal peptide is not part of the mature protein; also called hEMR2; hEMR2-NFlag
T1 sequence: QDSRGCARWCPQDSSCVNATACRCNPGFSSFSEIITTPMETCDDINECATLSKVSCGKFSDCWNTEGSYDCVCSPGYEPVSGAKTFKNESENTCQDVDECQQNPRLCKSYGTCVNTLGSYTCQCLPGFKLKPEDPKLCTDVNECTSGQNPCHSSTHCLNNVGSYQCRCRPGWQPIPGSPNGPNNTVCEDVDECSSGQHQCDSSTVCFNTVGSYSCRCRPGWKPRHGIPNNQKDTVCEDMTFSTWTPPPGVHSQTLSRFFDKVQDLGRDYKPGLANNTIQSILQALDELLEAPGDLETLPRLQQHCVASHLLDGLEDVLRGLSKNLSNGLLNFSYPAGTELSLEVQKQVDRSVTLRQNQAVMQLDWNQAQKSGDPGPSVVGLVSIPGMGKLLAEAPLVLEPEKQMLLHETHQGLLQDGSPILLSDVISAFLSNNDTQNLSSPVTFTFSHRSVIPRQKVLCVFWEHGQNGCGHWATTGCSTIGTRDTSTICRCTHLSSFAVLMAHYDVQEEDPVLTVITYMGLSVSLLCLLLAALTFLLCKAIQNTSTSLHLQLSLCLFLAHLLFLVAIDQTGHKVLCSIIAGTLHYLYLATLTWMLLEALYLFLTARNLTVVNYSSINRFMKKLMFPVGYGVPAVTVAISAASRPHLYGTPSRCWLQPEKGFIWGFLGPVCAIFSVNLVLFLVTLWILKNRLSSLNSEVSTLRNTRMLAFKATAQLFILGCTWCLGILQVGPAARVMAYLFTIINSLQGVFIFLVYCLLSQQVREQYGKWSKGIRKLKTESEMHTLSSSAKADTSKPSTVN
Description: (§1) The exemplary antibodies were also tested using flow cytometry to determine their ability to associate with hEMR2, cEMR2 and CD97 expressed on the surface of cells.

[2] = biological target: T2, full-length mature human CD97 (residues Q21-I845) with N-terminal aspartic acid/lysine epitope tag, … (human, UniProt P48960 21-835); assay: as above
T2 construct: whole, on cells; also called hCD97; hCD97-NFlag
T2 sequence (looked up): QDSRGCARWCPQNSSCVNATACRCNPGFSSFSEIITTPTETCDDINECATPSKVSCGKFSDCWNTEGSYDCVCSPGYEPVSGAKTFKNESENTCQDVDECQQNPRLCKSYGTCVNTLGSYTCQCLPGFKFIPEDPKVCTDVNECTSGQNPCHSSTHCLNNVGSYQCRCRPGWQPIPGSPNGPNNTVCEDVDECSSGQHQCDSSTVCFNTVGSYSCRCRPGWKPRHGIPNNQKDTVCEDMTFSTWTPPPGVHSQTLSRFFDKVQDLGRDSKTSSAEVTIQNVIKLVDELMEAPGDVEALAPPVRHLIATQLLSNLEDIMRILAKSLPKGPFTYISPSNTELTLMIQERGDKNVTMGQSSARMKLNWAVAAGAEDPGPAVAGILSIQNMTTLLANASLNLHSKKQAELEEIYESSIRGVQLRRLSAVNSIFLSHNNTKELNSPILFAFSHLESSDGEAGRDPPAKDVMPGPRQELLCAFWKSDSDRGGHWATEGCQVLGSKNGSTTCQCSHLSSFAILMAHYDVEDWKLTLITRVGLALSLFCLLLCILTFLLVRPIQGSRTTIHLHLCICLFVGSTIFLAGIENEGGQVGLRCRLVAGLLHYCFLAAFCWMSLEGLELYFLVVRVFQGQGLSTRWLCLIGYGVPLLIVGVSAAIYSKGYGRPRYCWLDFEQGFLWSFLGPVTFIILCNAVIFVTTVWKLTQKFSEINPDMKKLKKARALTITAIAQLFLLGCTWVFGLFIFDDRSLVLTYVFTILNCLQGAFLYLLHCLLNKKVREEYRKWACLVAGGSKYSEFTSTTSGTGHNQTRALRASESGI
Description: as §1

[3] = biological target: T3, full-length mature cynomolgus EMR2 (residues Q24-N816) with N-terminal aspartic acid/lysine epitope tag, … (cynomolgus monkey (Macaca fascicularis), UniProt A0A2K5WL23 21-816); assay: as above
T3 construct: whole, on cells; also called cEMR2; cEMR2-NFlag
T3 sequence: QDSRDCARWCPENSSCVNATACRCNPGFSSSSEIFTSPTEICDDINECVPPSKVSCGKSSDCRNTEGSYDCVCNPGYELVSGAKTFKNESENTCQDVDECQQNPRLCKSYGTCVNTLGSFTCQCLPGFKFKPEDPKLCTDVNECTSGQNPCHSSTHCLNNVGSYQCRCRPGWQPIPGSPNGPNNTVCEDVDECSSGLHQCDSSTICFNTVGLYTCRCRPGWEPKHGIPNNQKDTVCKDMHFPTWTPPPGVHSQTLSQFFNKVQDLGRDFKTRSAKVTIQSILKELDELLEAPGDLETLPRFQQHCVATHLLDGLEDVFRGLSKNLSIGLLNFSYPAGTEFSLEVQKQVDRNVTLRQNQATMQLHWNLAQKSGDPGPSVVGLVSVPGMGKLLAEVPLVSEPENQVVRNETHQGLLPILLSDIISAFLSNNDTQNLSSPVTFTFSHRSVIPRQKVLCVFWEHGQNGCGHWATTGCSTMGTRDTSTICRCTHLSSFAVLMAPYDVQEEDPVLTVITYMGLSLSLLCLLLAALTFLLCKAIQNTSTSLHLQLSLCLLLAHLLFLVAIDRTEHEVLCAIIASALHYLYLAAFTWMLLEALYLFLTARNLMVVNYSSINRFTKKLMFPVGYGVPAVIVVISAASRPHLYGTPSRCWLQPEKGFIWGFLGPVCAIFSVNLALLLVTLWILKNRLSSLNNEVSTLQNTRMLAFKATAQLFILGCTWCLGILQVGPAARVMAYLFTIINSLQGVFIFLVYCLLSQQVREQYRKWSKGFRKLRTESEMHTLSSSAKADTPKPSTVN
Description: as §1

[4] = biological target: T1, full-length mature human EMR2 (residues …); assay: cell-based or functional assay
[5] = biological target: T2, full-length mature human CD97 (residues …); assay: cell-based or functional assay
[6] = biological target: T3, full-length mature cynomolgus EMR2 …; assay: cell-based or functional assay
[7] = biological target: T1, full-length mature human EMR2 (residues …); assay: cell-based or functional assay; remark: listed apart in the source
[8] = biological target: T2, full-length mature human CD97 (residues …); assay: cell-based or functional assay; remark: listed apart in the source
[9] = biological target: T1, full-length mature human EMR2 (residues …); assay: flow cytometry on transduced HEK293T; 293 naive MFI 99.5
Description: as §1

[10] = biological target: T2, full-length mature human CD97 (residues …); assay: as above
Description: as §1

[11] = biological target: T3, full-length mature cynomolgus EMR2 …; assay: as above
Description: as §1

[12] = biological target: T1, full-length mature human EMR2 (residues …); assay: flow cytometry on transduced HEK293T; 293 naive MFI 97.8
Description: as §1

[13] = biological target: T2, full-length mature human CD97 (residues …); assay: as above
Description: as §1

[14] = biological target: T3, full-length mature cynomolgus EMR2 …; assay: as above
Description: as §1

[15] = biological target: T1, full-length mature human EMR2 (residues …); assay: flow cytometry on transduced HEK293T; 293 naive MFI 97.1
Description: as §1

[16] = biological target: T2, full-length mature human CD97 (residues …); assay: as above
Description: as §1

[17] = biological target: T3, full-length mature cynomolgus EMR2 …; assay: as above
Description: as §1

Binder | % live, FAB-saporin killing assay [4] [%] | % live, FAB-saporin killing assay [5] [%] | % live, FAB-saporin killing assay [6] [%] | % live, FAB-saporin killing assay [7] [%] | % live, FAB-saporin killing assay [8] [%] | other results
SC93.252 (antibody, IgG2a, V domains shown, murine, IgG2a) VH: QVQLQQSDAELVKPGASVKISCKVSGFSFTDHTIHWMRQRPEQGLEWIGYIYPTDGNTRYNEKFKGKASLTADKSSTTAYMQLSSLTSEDSAVYFCAKRGYYWYFDVWGTGTTVTVSS VL: DIQMTQASSYLSVSLGGRVTITCKASDHINNWLAWYQQKPGNAPRLLISHATNLETGFPSRFSGSGSGKDYTLSITSLQTEDVATYYCQQYWNIPYTFGGGTKLEIE | 10.8 | 9.09 | 9.42 |  |  | FC MFI [1]: 40500; FC MFI [2]: 43800; FC MFI [3]: 45200
SC93.216 (antibody, IgG1, V domains shown) VH: EVQLVESGGGLVKPGGSLKLSCAASGFTFSSYGMSWVRQTPEKRLEWVAAIHSNGDITYYPDTVKGRFTISRDNAKNTLYLQMSSLTSEDTALYYCANLAYWGQGTLVTVSA VL: EIQMTQSPSSMSASLGDRITITCQATQDIVKNLNWYQQKPGKSPSSLIYYATELAEGVPSRFSGSGSGSDYSLTISNLESEDFADYYCLQFYEFPLTFGAGTKLELK |  |  |  | 102 | 107 | 
SC93.253 (antibody, V domains shown, Murine hybridoma antibody with a kappa light chain) VH: not shown VL: DIVMTQSQKFMSTSVGDRIIITCKASQNVRTTVDWYQQKPGQSPKVLISLASNRHTGVPDRFTGSGSGTDFTLTISNVQSEDLADYFCLQHRNYPLTFGGGTKLEIK | 13.4 | 92.2 | 11.1 |  |  | FC MFI [9]: 38300; FC MFI [10]: 328; FC MFI [11]: 48700
SC93.239 (antibody, V domains shown, Murine hybridoma antibody with a kappa light chain; also called clone SC93.239; SC93.239 (Bin A)) VH: LVQLQQSGVELARPGASVKLSCKASGYIFTSYGISWVKQRTGQGLEWIGNIYPRTGNTYYNEKFKDKATLTADKSSNTAYMELRSLTSEDSAVYFCARGTHYDPLDYWGQGTTLTVSS VL: ENVLTQSPAIMSASPGEKVTMTCRASSSVSSSDLHWYQQKSGASPKLWIYSTSNLASGVPARFSGSGSGASCSLTISSVEAEDAATYYCHQYSGYPWTFGGGTKLEIK | 16.8 | 106 | 16.7 |  |  | FC MFI [12]: 71100; FC MFI [13]: 925; FC MFI [14]: 76700
SC93.243 (antibody, IgG2b, V domains shown, murine, IgG2b) VH: QVQLQQSGAELMKPGASVKISCKATGYTFSSYWIEWVKQRPGHGLEWIGEILPGSGRTNYNERLKGKATFTADTSSNTAYMQLSSLTSEDSAVYYCARPYFYGSNFDFWGQGTTLTVSS VL: DIVMTQSHKFMSTSVGDRVSITCKASQDVGTAVAWYQQKPGQSPKLLIYWASTRHTGVPDRFTGSGSGTDFTLTISNVQSEDLADYFCQQYSSYHTFGGGTKLEIK | 68.7 | 91.9 | 20.8 |  |  | FC MFI [15]: 42700; FC MFI [16]: 8140; FC MFI [17]: 65800
SC93.15 (antibody, IgG1, V domains shown) VH: EVQLQQSGPELVKPGASVKISCKGSGYTFTDYFMNWVKLSHGKSLEWIGEINPNNGGTNYNQKFKGKATLTVDKSSSIAYMELRSLTSEDSAVYYCARPGTNYWGPGTTLTVSS VL: DIVMTQSHKFMSTSVGDRVSITCKASQNVGTSVAWYQQKPGHSPKLLIYWASTRHTGVPDRFTGSGSGTDFSLTISSVQSEDLTDYFCQQYSSYPLTFGGGTKLEIK |  |  |  | 15 | 99.5 | 

Reference: patent US20180327506A1 (AbbVie / Abbott, published 2018)
